Measurements taken from the supplement of paper PMC11316812.
± gives the standard deviation of the averaged measurements.

Columns and labels:
hTERT-HMEC = assay: percentage of EdU-negative (G0-arrested) nuclei per well, 72 h; higher = more G0 arrest; conditions: reference: sequence is the full UniProt precursor, the tested protein was the secreted form or ectodomain
MCF7 = assay: as above; conditions: reference: sequence is the full UniProt precursor, the tested protein was the secreted form or ectodomain
[1] = protein concentration 0.0225 µM
[2] = protein concentration 0.02102 µM
[3] = protein concentration 0.2102 µM
[4] = protein concentration 0.0229925 µM
[5] = protein concentration 0.229925 µM
[6] = protein concentration 0.0065 µM
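Also: secreted proteins added to cultured cells, EdU pulse at the end, nuclei found by Hoechst imaging, EdU status from nuclear versus surrounding ring intensity ratio, PBS as neutral control.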

MARMGLAGAAGRWWGLALGLTAFFLPGVHSQVVQVNDSMYGFIGTDVVLHCSFANPLPSVKITQVTWQKSTNGSKQNVAIYNPSMGVSVLAPYRERVEFLRPSFTDGTIRLSRLELEDEGVYICEFATFPTGNRESQLNLTVMAKPTNWIEGTQAVLRAKKGQDDKVLVATCTSANGKPPSVVSWETRLKGEAEYQEIRNPNGTVTVISRYRLVPSREAHQQSLACIVNYHMDRFKESLTLNVQYEPEVTIEGFDGNWYLQRMDVKLTCKADANPPATEYHWTTLNGSLPKGVEAQNRTLFFKGPINYSLAGTYICEATNPIGTRSGQVEVNITEFPYTPSPPEHGRRAGPVPTAIIGGVAGSILLVLIVVGGIVVALRRRRHTFKGDYSTKKHVYGNGYSKAGIPQHHPPMAQNLQYPDDSDDEKKAGPLGGSSYEEEEEEEEGGGGGERKVGGPHPKYDEDAKRPYFTVDEAEARQDGYGDRTLGYQYDPEQLDLAENMVSQNDGSFISKKEWYV
percentage of EdU-negative (hTERT-HMEC; [1]): 4.56 ± 1.1%
percentage of EdU-negative (hTERT-HMEC; protein concentration 0.225 µM): 4.77 ± 0.62%
percentage of EdU-negative (MCF7; [1]): 25.4 ± 4.4%
percentage of EdU-negative (MCF7; protein concentration 0.225 µM): 23.9 ± 2.4%

MARPGQRWLGKWLVAMVVWALCRLATPLAKNLEPVSWSSLNPKFLSGKGLVIYPKIGDKLDIICPRAEAGRPYEYYKLYLVRPEQAAACSTVLDPNVLVTCNRPEQEIRFTIKFQEFSPNYMGLEFKKHHDYYITSTSNGSLEGLENREGGVCRTRTMKIIMKVGQDPNAVTPEQLTTSRPSKEADNTVKMATQAPGSRGSLGDSDGKHETVNQEEKSGPGASGGSSGDPDGFFNSKVALFAAVGAGCVIFLLIIIFLTVLLLKLRKRHRKHTQQRAAALSLSTLASPKGGSGTAGTEPSDIIIPLRTTENNYCPHYEKVSGDYGHPVYIVQEMPPQSPANIYYKV
percentage of EdU-negative (hTERT-HMEC; [2]): 5.93 ± 0.36%
percentage of EdU-negative (hTERT-HMEC; [3]): 5.52 ± 0.52%
percentage of EdU-negative (MCF7; [2]): 26.6 ± 1.7%
percentage of EdU-negative (MCF7; [3]): 27.1 ± 2.8%

MARPLCTLLLLMATLAGALASSSKEENRIIPGGIYDADLNDEWVQRALHFAISEYNKATEDEYYRRPLQVLRAREQTFGGVNYFFDVEVGRTICTKSQPNLDTCAFHEQPELQKKQLCSFEIYEVPWEDRMSLVNSRCQEA
percentage of EdU-negative (hTERT-HMEC; [1]): 5.17 ± 0.14%
percentage of EdU-negative (hTERT-HMEC; protein concentration 0.225 µM): 6.38 ± 0.58%
percentage of EdU-negative (MCF7; [1]): 25.1 ± 1.4%
percentage of EdU-negative (MCF7; protein concentration 0.225 µM): 24.36 ± 0.2%

MARPNKFLLWFCCFAWLCFPISLGSQASGGEAQIAASAELESGAMPWSLLQHIDERDRAGLLPALFKVLSVGRGGSPRLQPDSRALHYMKKLYKTYATKEGIPKSNRSHLYNTVRLFTPCTRHKQAPGDQVTGILPSVELLFNLDRITTVEHLLKSVLLYNINNSVSFSSAVKCVCNLMIKEPKSSSRTLGRAPYSFTFNSQFEFGKKHKWIQIDVTSLLQPLVASNKRSIHMSINFTCMKDQLEHPSAQNGLFNMTLVSPSLILYLNDTSAQAYHSWYSLHYKRRPSQGPDQERSLSAYPVGEEAAEDGRSSHHRHRRGQETVSSELKKPLGPASFNLSEYFRQFLLPQNECELHDFRLSFSQLKWDNWIVAPHRYNPRYCKGDCPRAVGHRYGSPVHTMVQNIIYEKLDSSVPRPSCVPAKYSPLSVLTIEPDGSIAYKEYEDMIATKCTCR
percentage of EdU-negative (hTERT-HMEC; [4]): 4.1 ± 0.078%
percentage of EdU-negative (hTERT-HMEC; [5]): 4.84 ± 1.5%
percentage of EdU-negative (MCF7; [4]): 24.683 ± 0.017%
percentage of EdU-negative (MCF7; [5]): 29.8 ± 2.2%

MARPVRGGLGAPRRSPCLLLLWLLLLRLEPVTAAAGPRAPCAAACTCAGDSLDCGGRGLAALPGDLPSWTRSLNLSYNKLSEIDPAGFEDLPNLQEVYLNNNELTAVPSLGAASSHVVSLFLQHNKIRSVEGSQLKAYLSLEVLDLSLNNITEVRNTCFPHGPPIKELNLAGNRIGTLELGAFDGLSRSLLTLRLSKNRITQLPVRAFKLPRLTQLDLNRNRIRLIEGLTFQGLNSLEVLKLQRNNISKLTDGAFWGLSKMHVLHLEYNSLVEVNSGSLYGLTALHQLHLSNNSIARIHRKGWSFCQKLHELVLSFNNLTRLDEESLAELSSLSVLRLSHNSISHIAEGAFKGLRSLRVLDLDHNEISGTIEDTSGAFSGLDSLSKLTLFGNKIKSVAKRAFSGLEGLEHLNLGGNAIRSVQFDAFVKMKNLKELHISSDSFLCDCQLKWLPPWLIGRMLQAFVTATCAHPESLKGQSIFSVPPESFVCDDFLKPQIITQPETTMAMVGKDIRFTCSAASSSSSPMTFAWKKDNEVLTNADMENFVHVHAQDGEVMEYTTILHLRQVTFGHEGRYQCVITNHFGSTYSHKARLTVNVLPSFTKTPHDITIRTTTMARLECAATGHPNPQIAWQKDGGTDFPAARERRMHVMPDDDVFFITDVKIDDAGVYSCTAQNSAGSISANATLTVLETPSLVVPLEDRVVSVGETVALQCKATGNPPPRITWFKGDRPLSLTERHHLTPDNQLLVVQNVVAEDAGRYTCEMSNTLGTERAHSQLSVLPAAGCRKDGTTVGIFTIAVVSSIVLTSLVWVCIIYQTRKKSEEYSVTNTDETVVPPDVPSYLSSQGTLSDRQETVVRTEGGPQANGHIESNGVCPRDASHFPEPDTHSVACRQPKLCAGSAYHKEPWKAMEKAEGTPGPHKMEHGGRVVCSDCNTEVDCYSRGQAFHPQPVSRDSAQPSAPNGPEPGGSDQEHSPHHQCSRTAAGSCPECQGSLYPSNHDRMLTAVKKKPMASLDGKGDSSWTLARLYHPDSTELQPASSLTSGSPERAEAQYLLVSNGHLPKACDASPESTPLTGQLPGKQRVPLLLAPKS [Q96JA1]
percentage of EdU-negative (hTERT-HMEC; [6]): 4.69 ± 0.4%
percentage of EdU-negative (hTERT-HMEC; protein concentration 0.065 µM): 8.75 ± 1.2%
percentage of EdU-negative (MCF7; [6]): 25.4 ± 1%
percentage of EdU-negative (MCF7; protein concentration 0.065 µM): 25.8 ± 3.1%

MARRRRRACIALFLVLLFAFGTLMGLRTLKAPDGLPALGPGLELAPFERRPEGAPAPAARAPAAPAAPPPPPPPPRTADPGGSPGPAPAEAEPAPVQSLRVYSDLHAFYYSWYGSPRREGHYIHWDHVMVPHWDPKISASYPRGRHSPPDDLGSSFYPELGPYSSRDPEVLREHMTQLKEAAIGVLVLSWYPPGMADDNGEPSDDLVPAILDTAHQYSIQVAFHIQPYKGRDDITVHDNIKYIIDTYGSHGAFYRYKNSMGKSLPLFYIYDSYLTSPEAWAHLLTPNGPHSIRNTPYDGVFIALLVEEGHTHDILAAGFDGMYTYFASNGFSFGSSHQNWKAVKNFCDANNLMFIPSVGPGYIDTSIRPWNNHNTRNRVNGKYYETALQAALTVRPEIVSITSFNEWHEGTQIEKAIPKKTPTRLYLDYLPHQPSLYLELTRRWAEHFIKEKEQWLM [Q5VSG8]
percentage of EdU-negative (hTERT-HMEC; [1]): 4.99 ± 0.62%
percentage of EdU-negative (hTERT-HMEC; protein concentration 0.225 µM): 9.23 ± 0.73%
percentage of EdU-negative (MCF7; [1]): 25.6 ± 0.44%
percentage of EdU-negative (MCF7; protein concentration 0.225 µM): 28.3 ± 2.4%
